In patent US9814672B2, “Echogenic vehicle for clinical delivery of plasminogen activator and other fibrin-binding therapeutics to thrombi” (priority 2007, dated 2017):
Where two headings read alike, the source gives them in different places.

What was measured:
[1] = target: T1, fibrin (Homo sapiens, UniProt P02671+P02675+P02679); assay: Two-stage fibrin pad ELISA, Scatchard and van't Hoff analysis; format: binding; details: for Avidity: Kassoc × no. ligand molecules/liposome; for Kassoc: detergent-treated preparation
T1 construct: purchased Calbiochem (EMD Biosciences, Inc., La Jolla, Calif.)
T1 sequence (P02671 36-629 limits assumed): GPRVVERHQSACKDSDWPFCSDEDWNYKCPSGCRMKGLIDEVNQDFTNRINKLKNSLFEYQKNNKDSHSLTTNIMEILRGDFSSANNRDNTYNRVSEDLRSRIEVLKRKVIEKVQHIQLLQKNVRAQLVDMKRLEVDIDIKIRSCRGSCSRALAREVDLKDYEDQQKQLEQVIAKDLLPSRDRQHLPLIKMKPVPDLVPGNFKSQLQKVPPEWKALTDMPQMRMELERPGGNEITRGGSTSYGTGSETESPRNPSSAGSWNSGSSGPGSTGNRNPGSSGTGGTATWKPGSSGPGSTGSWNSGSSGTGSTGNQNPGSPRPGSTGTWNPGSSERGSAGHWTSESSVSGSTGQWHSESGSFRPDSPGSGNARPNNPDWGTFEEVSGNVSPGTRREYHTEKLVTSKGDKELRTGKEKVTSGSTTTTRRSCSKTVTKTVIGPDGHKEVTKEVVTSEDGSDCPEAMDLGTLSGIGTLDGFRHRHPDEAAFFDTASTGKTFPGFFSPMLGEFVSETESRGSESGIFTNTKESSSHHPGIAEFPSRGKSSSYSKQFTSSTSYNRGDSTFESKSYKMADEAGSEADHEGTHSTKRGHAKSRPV
T1 sequence (P02675 45-491 limits assumed): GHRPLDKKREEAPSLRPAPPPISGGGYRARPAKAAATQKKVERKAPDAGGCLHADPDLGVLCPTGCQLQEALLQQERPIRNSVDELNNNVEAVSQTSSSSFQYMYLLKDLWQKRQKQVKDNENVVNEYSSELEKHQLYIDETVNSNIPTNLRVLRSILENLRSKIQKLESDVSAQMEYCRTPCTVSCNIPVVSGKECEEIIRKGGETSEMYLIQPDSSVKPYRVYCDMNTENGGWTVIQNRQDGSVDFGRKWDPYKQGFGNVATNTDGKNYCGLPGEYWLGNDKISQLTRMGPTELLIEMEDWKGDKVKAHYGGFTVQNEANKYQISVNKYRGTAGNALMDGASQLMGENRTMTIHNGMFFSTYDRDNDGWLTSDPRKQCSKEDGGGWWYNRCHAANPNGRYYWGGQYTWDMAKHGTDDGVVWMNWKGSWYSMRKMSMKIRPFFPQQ
T1 sequence (P02679 27-437 isoform P02679-2 limits assumed): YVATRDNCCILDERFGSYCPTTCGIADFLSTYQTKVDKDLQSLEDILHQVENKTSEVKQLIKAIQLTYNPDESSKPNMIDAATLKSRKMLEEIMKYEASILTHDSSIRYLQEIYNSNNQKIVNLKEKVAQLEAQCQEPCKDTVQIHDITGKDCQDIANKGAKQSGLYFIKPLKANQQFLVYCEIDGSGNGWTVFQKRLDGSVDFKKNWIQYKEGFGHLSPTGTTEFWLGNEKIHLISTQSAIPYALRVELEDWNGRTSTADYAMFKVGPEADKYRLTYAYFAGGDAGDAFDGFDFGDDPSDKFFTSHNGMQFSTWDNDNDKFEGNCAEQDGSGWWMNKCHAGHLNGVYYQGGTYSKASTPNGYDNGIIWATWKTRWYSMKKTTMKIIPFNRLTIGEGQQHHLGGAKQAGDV
Experimental: Added 100 μl 0.2% BSA/PBS to each well and incubated at 37° C. for 1 hour. All subsequent incubations were also at 37° C. Aspirated the wells and washed the plate 3× with PBS-T. Added Activase dilutions (10, 5, 2.5, 1.25, and 0.625 μg/ml PBS-T) to replicate wells ([…]). Incubated for 2 hours. Removed the contents of each well and pooled all samples within each dilution. Stored pooled samples at 4° C. For tPA-ELIP dilutions (in PBS), the third wash before adding the samples was with PBS. Stored the pooled tPA-ELIP samples in polypropylene tubes.
Added monoclonal anti-tPA capture antibody (Ab) (5 μg/ml coating buffer; […]) to rows B, C, E and G of a fresh microplate. Incubated in a humidified chamber at 4° C. overnight. All subsequent incubations were in humidified chambers at 37° C. at volumes of 50 μl/well, followed by aspiration of wells and 3× washes with PBS-T. Blocked all rows with conjugate buffer for 1 hour. Added tPA standards (50, 25, 12.5, 6.25 and 3.13 ng/ml) and pooled sample dilutions (in PBS-T) in duplicate to sample (B, C, E, G) and background (A, D, F, H) wells. Incubated for 2 hours. Added secondary detection Ab (10 μg sheep anti-tPA/ml 0.1% BSA in PBS-T) to all wells and incubated 1 hour, followed by a conjugate incubation (3,000× diluted with conjugate buffer; 1 hour). Added 50 μl of substrate buffer+500 of substrate (1 tablet/5 ml substrate buffer) to each well. Incubated at 37° for 15 minutes. Immediately quenched with 5 μl of 1M sodium hydroxide/well. Read the plate at 405 nm. Determined net absorbance (A405) by subtracting background OD from sample OD (e.g., B4-A4 or E7-F7).
Calculated the undiluted tPA concentrations of each pooled sample from the standard curve. These represented the free fractions ([F]) of the sample dilutions after equilibrium incubation with fibrin. Obtained the bound concentrations ([B]) by subtracting the free values from the total tPA concentration of the starting dilutions. Prepared Scatchard plots by plotting [B] (x-axis) vs. B/F (y-axis). The slope=−Kassoc and the y-intercept=Kassoc[n], where [n] was the concentration of exposed tPA binding sites on the fibrin pads.
Dilutions of untreated, sham-treated (control) and PPACK-treated (tPA(P)) tPA, as well as tPA(P) conjugated to ELIP (tPA(P)-ELIP), were incubated on replicate fibrin pads, prepared in microplate wells according to a modification of the method of Edgell et al. (1996). Human thrombin was added to a solution of 0.5 mg/ml of human fibrinogen in 0.02M phosphate-buffered saline, pH 7.4 (PBS), to a final concentration of 0.125 IU thrombin/ml; 100 μl of this solution was immediately added to each well and incubated at 37° C. for 45 minutes, followed by overnight drying of the plate at 45° C. After incubation with 100 μl/well of 0.2% BSA in PBS for 1 hour, samples (100 μl/well) were incubated for 2 hours at 37° C. For thermodynamic analyses, this incubation was performed at three temperatures (5, 24 and 37° C.). In order to determine the concentration of free tPA remaining in solution after incubation of tPA with fibrin, from which the concentration of bound tPA could be calculated for Scatchard analysis, the contents of duplicate wells were recovered, pooled and subsequently assayed for immunoreactive tPA in a standard quantitative sandwich ELISA.
Briefly, Nunc MaxiSorp microtiter plates were coated with 5 μg/ml of a monoclonal anti-tPA capture antibody (Ab) in 0.05M sodium bicarbonate, pH 9.6, overnight at 4° C. All incubation volumes were 50 μl/well. One-half of wells were left uncoated for determination of nonspecific binding. After aspirating well contents, all wells were blocked with conjugate buffer (1% BSA in 0.05M Tris buffer, pH 8.0, with 0.02% sodium azide) for 1 hour. From this point, all incubations were at 37° C. Each incubation was followed by aspiration of well contents and washes (3×) with PBS-T (PBS with 0.05% Tween 20). […]

[2] = tPA enzyme activity after PPACK inactivation, paranitroanilide-substrate method; format: biochemical; details: S.E., n=3
Experimental: Reconstituted tPA was incubated with a fivefold molar excess of PPACK in 0.2 M L-arginine in 0.05M phosphate buffer, pH 7.2, with 0.01% Tween 20 for 1 hour at room temperature, followed by dialysis against reaction buffer to remove unreacted PPACK. A control preparation was carried through the procedure without PPACK and all procedures involving PPACK were protected from light. Enzyme activity in PPACK-treated and control tPA preparations was measured with a […] paranitroanilide-substrate method (Ranby and Wallen, 1981).

[3] = target: T1, fibrin; assay: Two-stage fibrin pad ELISA, Scatchard and van't Hoff analysis; details: undiluted fresh-frozen rabbit serum, 37° C.; read-out: binding affinity (KD) in serum

Fibrinogen [reference compound]
cross-reactivity with fibrin ([1]; competition with tPA samples, Example 12): 5%

Sham (Control): tPA control preparation carried through the inactivation procedure without PPACK [reference compound]
Kd ([1]; S.E., n=3, read-out: High-Affinity KD @ 37° C.): 5.92 nM | Percent Starting Activity [2]: 99.8%

tPA(P)-ELIP: PPACK-inactivated tPA conjugated by thioether linkage to MPB-ELIP (PC:MPB-PE:DPPG:CH 69:8:8:15); made without detergent or with 0.01% Tween 20
Avidity ([1]; +Tween 20): 0.151 M^−1/LIP × 10^12 | Avidity ([1]; No Detergent): 0.480 M^−1/LIP × 10^12 | ΔS° ([1]; high affinity only): +14.7 cal/mole° | ΔG° ([1]; high affinity only, 278 K): -46.4 kJ/mol | Kassoc ([1]; high affinity only, 278 K): 5.83e+08 M⁻¹ | ΔG° ([1]; high affinity only, 297 K): -48.1 kJ/mol | Kassoc ([1]; high affinity only, 297 K): 3.01e+08 M⁻¹ | ΔG° ([1]; high affinity only, 310 K): -48.5 kJ/mol | Kassoc ([1]; high affinity only, 310 K): 1.51e+08 M⁻¹ | ΔH° ([1]; high affinity only, van't Hoff plot): -29.6 kJ/mol | Kd ([1]; thiolation buffers: +Tween 20, read-out: KD @ 37° C.): 6.62 nM | Kd ([1]; thiolation buffers: No Detergent, read-out: KD @ 37° C.): 1.9 nM | Kd [3]: 3.91 nM
